From US20050152888A1

What was measured:
[1] = molecular target: Rpn10 proteasome subunit C-terminally fused with Fpr1 (strain Rpn10-FPR1) (S. cerevisiae) (UniProt P38886); test: cell-based or functional assay
[2] = molecular target: Pre10 proteasome subunit C-terminally fused with Fpr1 (strain Pre10-FPR1) (S. cerevisiae) (UniProt P21242); test: cell-based or functional assay
Chain of Pre10 proteasome subunit C-terminally fused with Fpr1 (strain Pre10-FPR1) (S. cerevisiae) (P21242 other isoform, or with tags, fused parts or gaps): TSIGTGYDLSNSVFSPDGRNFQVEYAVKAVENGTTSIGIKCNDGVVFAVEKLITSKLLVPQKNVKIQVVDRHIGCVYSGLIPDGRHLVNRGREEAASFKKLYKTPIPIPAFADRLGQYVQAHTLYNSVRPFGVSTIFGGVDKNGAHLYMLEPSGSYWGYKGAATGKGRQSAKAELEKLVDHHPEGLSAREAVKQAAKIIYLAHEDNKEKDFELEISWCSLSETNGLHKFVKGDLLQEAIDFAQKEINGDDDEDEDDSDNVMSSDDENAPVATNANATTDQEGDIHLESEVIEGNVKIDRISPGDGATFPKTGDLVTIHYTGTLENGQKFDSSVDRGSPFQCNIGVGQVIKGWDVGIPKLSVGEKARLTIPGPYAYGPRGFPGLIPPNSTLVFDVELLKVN

Chain of Rpn10 proteasome subunit C-terminally fused with Fpr1 (strain Rpn10-FPR1) (S. cerevisiae) (P38886 other isoform, or with tags, fused parts or gaps): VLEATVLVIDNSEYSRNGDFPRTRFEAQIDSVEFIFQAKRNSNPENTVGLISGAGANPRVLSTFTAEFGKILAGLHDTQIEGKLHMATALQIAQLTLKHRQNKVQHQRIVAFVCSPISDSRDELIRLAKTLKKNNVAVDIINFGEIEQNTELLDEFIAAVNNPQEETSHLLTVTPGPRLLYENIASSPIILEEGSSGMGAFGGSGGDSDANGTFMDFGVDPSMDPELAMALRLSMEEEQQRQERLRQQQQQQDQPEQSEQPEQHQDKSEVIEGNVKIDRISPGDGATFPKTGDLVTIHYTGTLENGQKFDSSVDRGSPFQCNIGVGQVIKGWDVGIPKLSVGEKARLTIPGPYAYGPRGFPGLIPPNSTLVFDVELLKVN

Work on “HA epitope-tagged Tor-His3 expressed in yeast (p415-TOR-link-HIS3HA) (from UniProt P35169 1883-2078; P06633 1-220)” yielded a half-life of reporter degradation in vivo with rapamycin (cycloheximide chase, anti-HA Western) [1] of 20 to 30 min and a half-life of reporter degradation in vivo with rapamycin (cycloheximide chase, anti-HA Western) [2] of 20 to 30 min.
